Key:
[1] = Chromogenic H2O2 oxidase assay / kinetic analysis on galactose
Protocol: (§2) A chromogenic assay was used to measure hydrogen peroxide production (15). Reactions contained 0.1 mM 4aminoantipyrine (4AA), 1 mM phenol, 0.5 U horseradish peroxidase, 40 mM Tris-HCl (pH 8.0), and different substrates were initiated by adding 0.2 μg of enzymes to the 250 μL reaction mixture. The production of H2O2 was coupled to the oxidation of 4aminoantipyrine by horseradish peroxidase and detected at 500 nm. Reactions were incubated at 37° C. for 15 min to measure the specific activity of GOOX on 10 mM of monosaccharide or 1 mM of oligosaccharide.
(§3) At least 12 substrate concentrations were included to obtain kinetic parameters for each substrate. Initial rates were obtained by measuring reaction products every 30 s for 15 min at 37° C. and pH 8.0, and kinetic parameters were calculated using the Michaelis-Menten equation (GraphPad Prism5 Software).

[2] = Chromogenic H2O2 oxidase assay / kinetic analysis on NAG
Protocol: as §2, §3

Optimum pH for activity = assay type: biochemical; details: 25 mM cellobiose, 37° C., Britton-Robinson buffer pH 5 to 12
Protocol: (§1) Temperature stability was measured by incubating 0.2 μg of enzyme for 1 h at nine different temperatures ranging from 25 to 60° C. (Table 9). While GOOX-VN and the variant GOOX-V were stable at 45° C., both lost more than 70% activity after incubation for 1 h at 50° C. […] The pH stability of GOOX-VN was determined by incubating 0.2 μg of the enzyme for 1 h at pH values from pH 3 to 12. After 1 h of incubation, GOOX-VN retained more than 80% activity at pH 5 to pH 10, 40% activity at pH 4, and less than 10% activity at pH values below 3 or above 11. Finally, the optimum pH for GOOX-VN activity was determined by incubating 0.1 μg of enzyme at 37° C. for up to 5 min with 25 mM cellobiose in 25 mM Britton-Robinson universal buffer solutions at pH 5 to 12. At regular time points, the chromogenic assay mix containing 400 mM potassium phosphate buffer pH 6, 0.1 mM 4-aminoantipyrine, 1 mM phenol, 3 U/ml horseradish peroxidase and 40 mM cellobiose was added to the reaction and was incubated for approximately 5 min at 37° C., until the chromogenic compound was detected.

[3] = Temperature stability (residual activity on cellobiose); assay type: physicochemical; details: for Residual activity after 1 h: assay 1 mM cellobiose, 37° C., pH 8
Protocol: as §1

[4] = Effect of deglycosylation with PNGaseF on enzyme activity; assay type: biochemical
Protocol: Approximately 2 μg of purified enzyme was treated with PNGaseF (New England Biolabs) using denaturing and native conditions. Samples that were deglycosylated using denaturing conditions were analysed by SDS PAGE, while samples deglycosylated using native conditions were used to evaluate the impact of glycosylation on enzyme activity. The activity of enzymes was measured on 10 mM maltose at 37° C. for 15 min. (Table 7). N-glycosylation was predicted by NetNGlyc (http://www.cbs.dtu.dk/services/NetNGlyc/) while O-glycosylation was predicted by OGPET (http://ogpet.utep.edu/OGPET/).

[5] = Chromogenic H2O2 oxidase assay / kinetic analysis on glucose
Protocol: as §2, §3

[6] = Chromogenic H2O2 oxidase assay / kinetic analysis on maltose
Protocol: as §2, §3

[7] = Chromogenic H2O2 oxidase assay on xylopentaose; details: 1 mM xylopentaose; 37° C., 15 min
Protocol: as §2
(§4) An additional eight mutations, identified as Y72F, Y72A, E247A, E314A, W351A, N388S, Q353N, Q384A, were created in GOOX-VN to assess the influence of these residues on the substrate selectivity of GOOX-VN. […] The specific activity of each mutant was then measured at 37° C. for 15 min using 10 mM mono-sugars and 1 mM oligosaccharides as performed for Y300A, Y300N, and W351F (Table 11).

[8] = Chromogenic H2O2 oxidase assay / kinetic analysis on xylose
Protocol: as §2, §3

[9] = Chromogenic H2O2 oxidase assay / kinetic analysis on xylotriose
Protocol: as §2, §3

[10] = Chromogenic H2O2 oxidase assay on xylotetraose; details: 1 mM xylotetraose; 37° C., 15 min
Protocol: as §2, §4

[11] = substrate: OC[C@H]1O[C@@H](O[C@H]2[C@H](O)[C@@H](O)C(O)O[C@@H]2CO)[C@H](O)[C@@H](O)[C@@H]1O; assay: purified protein, by the assay type; details: other: 37° C., pH 8.0
Protocol: as §2, §3

[12] = substrate: OC[C@H]1O[C@H](O[C@H]2[C@H](O)[C@@H](O)C(O)O[C@@H]2CO)[C@H](O)[C@@H](O)[C@@H]1O; assay: purified protein, by the assay type; details: other: 37° C., pH 8.0
Protocol: as §2, §3

[13] = substrate: OC1OC[C@@H](O[C@@H]2OC[C@@H](O)[C@H](O)[C@H]2O)[C@H](O)[C@H]1O; assay: purified protein, by the assay type; details: other: 37° C., pH 8.0
Protocol: as §2, §3

[14] = substrate: OC[C@H]1O[C@@H](O[C@H]2[C@H](O)[C@@H](O)[C@H](O[C@H]3[C@H](O)[C@@H](O)C(O)O[C@@H]3CO)O[C@@H]2CO)[C@H](O)[C@@H](O)[C@@H]1O; assay: purified protein, by the assay type; details: other: 37° C., pH 8.0
Protocol: as §2, §3

[15] = substrate: OC1OC[C@@H](O[C@@H]2OC[C@@H](O[C@@H]3OC[C@@H](O)[C@H](O)[C@H]3O)[C@H](O)[C@H]2O)[C@H](O)[C@H]1O; assay: purified protein, by the assay type; details: other: 37° C., pH 8.0
Protocol: as §2, §3

[16] = substrate: OC[C@H]1OC(O)[C@H](O)[C@@H](O)[C@@H]1O; assay: purified protein, by the assay type; details: other: 37° C., pH 8.0
Protocol: as §2, §3

[17] = 10 mM galactose, 37° C., 15 min
[18] = 1 mM xylotriose, 37° C., 15 min

B1: Acremonium strictum gluco-oligosaccharide oxidase GOOX-VN (type strain CBS 346.70, V38 and N388), SEQ ID NO. 2 (Sarocladium strictum; A38V/S388N) (protein)
chain: NSINACLAAADVEFHEEDSEGWEMDGTAFNLRVDYDPVAIAIPRSTEDIAAAVQCGLDAGVQISAKGGGHSYGSYGFGGEDGHLMLELDRMYRVSVDDDNVATIQGGARLGYTALELLDQGNRALTHGTCPAVGIGGHVLGGGYGFATHTHGLTLDWLVGATVVLADASIVHVSKTENADLFWALRGGGGGFAIVSEFEFNTFEAPEIITTYQVTTTWNRKQHVAGLKALQDWAENTMPRELSMRLEINANALNWEGNYFGNAKDLKKVLQPIMKKAGGKSTISKLVETDWYGQINTYLYGADLNITYNYDVHEYFYANSLTAPRLSDEAISAFVDYKFDNSSVRPGRGWWIQWDFHGGKNSALASHSNDETAYAHRDQLWLWQFYDNIYDYENNTSPYPESGFEFMQGFVATIEDTLPEDRKGKYFNYADTTLDKEEAQKLYWRGNLEKLQAIKAKYDPEDVFGNVVSVEPIA
[1]; [17]
  Specific Activity of Enzyme Variants: 0.5 µmol/min/mg
  Specific activity Defined substrate concentration: 0.52 µmol/mg/min
[1]; after 3 min using 10 mM sugar
  oxidation of galactose: detected
[1]; substrate galactose
  Specific activity From Vmax: 7.08 µmol/mg/min
[2]; 10 mM NAG, 37° C., 15 min
  Specific Activity of Enzyme Variants: 0.2 µmol/min/mg
  Specific activity Defined substrate concentration: 0.25 µmol/mg/min
[2]; after 3 min using 10 mM sugar
  oxidation of NAG: detected
[2]; substrate NAG
  Specific activity From Vmax: 8.00 µmol/mg/min
Optimum pH for activity
  pH optimum: 10 pH
[3]; 1 h at 45° C.
  stability at 45° C.: stable
[3]; incubation at 25° C.
  Residual activity after 1 h: 100%
[3]; incubation at 30° C.
  Residual activity after 1 h: 95%
[3]; incubation at 35° C.
  Residual activity after 1 h: 100%
[3]; incubation at 40° C.
  Residual activity after 1 h: 100%
[3]; incubation at 45° C.
  Residual activity after 1 h: 64%
[3]; incubation at 50° C.
  Residual activity after 1 h: 7%
[3]; incubation at 55° C.
  Residual activity after 1 h: <5%
[3]; incubation at 60° C.
  Residual activity after 1 h: <5%
[4]; deglycosylated with PNGaseF (native conditions), 10 mM maltose, 15 min at 37° C., duplicate
  Activity, Deglycosylated: 3.43 nmol/min
[4]; deglycosylation under native conditions
  loss in enzyme activity on deglycosylation: did not cause a detectable loss in enzyme activity
[4]; glycosylated enzyme, 10 mM maltose, 15 min at 37° C., duplicate
  Activity, Glycosylated: 3.51 nmol/min
[5]; 10 mM glucose, 37° C., 15 min
  Specific Activity of Enzyme Variants: 2.6 µmol/min/mg
  Specific activity Defined substrate concentration: 2.62 µmol/mg/min
[5]; substrate glucose
  Specific activity From Vmax: 7.41 µmol/mg/min
[6]; 1 mM maltose, 37° C., 15 min
  Specific Activity of Enzyme Variants: 1.5 µmol/min/mg
  Specific activity Defined substrate concentration: 1.53 µmol/mg/min
[6]; substrate maltose
  Specific activity From Vmax: 5.94 µmol/mg/min
[7]
  Specific Activity of Enzyme Variants: 10.8 µmol/min/mg
[8]; 10 mM xylose, 37° C., 15 min
  Specific Activity of Enzyme Variants: 0.4 µmol/min/mg
  Specific activity Defined substrate concentration: 0.42 µmol/mg/min
[8]; after 3 min using 10 mM sugar
  oxidation of xylose: detected
[8]; substrate xylose
  Specific activity From Vmax: 5.20 µmol/mg/min
[9]; [18]
  Specific Activity of Enzyme Variants: 7.5 µmol/min/mg
  Specific activity Defined substrate concentration: 7.48 µmol/mg/min
[9]; substrate xylotriose
  Specific activity From Vmax: 8.23 µmol/mg/min
[10]
  Specific Activity of Enzyme Variants: 10.2 µmol/min/mg
[11]
  Km: 70 ± 10 µM
  kcat: 6.25 ± 0.178 s⁻¹
  kcat/Km: 95500 ± 13900 M⁻¹ s⁻¹
[12]
  Km: 2810 ± 160 µM
[13]
  Km: 100 ± 0 µM
  kcat: 8.813 ± 0.085 s⁻¹
  kcat/Km: 89800 ± 867 M⁻¹ s⁻¹
[14]
  Km: 90 ± 10 µM
  kcat: 6.02 ± 0.192 s⁻¹
  kcat/Km: 70600 ± 8150 M⁻¹ s⁻¹
[15]
  Km: 100 ± 10 µM
  kcat: 8.31 ± 0.123 s⁻¹
  kcat/Km: 84300 ± 8530 M⁻¹ s⁻¹
[16]
  Km: 17360 ± 700 µM
